Experimental findings from patent US7727960B2, “C5a receptor antagonists” (Jerini AG, priority 2003, dated 2010) are described below.

Some results are limits rather than exact numbers.

The assay deals with T1, human C5aR (CD88) (human, UniProt P21730 1-350).
T1 sequence (looked up): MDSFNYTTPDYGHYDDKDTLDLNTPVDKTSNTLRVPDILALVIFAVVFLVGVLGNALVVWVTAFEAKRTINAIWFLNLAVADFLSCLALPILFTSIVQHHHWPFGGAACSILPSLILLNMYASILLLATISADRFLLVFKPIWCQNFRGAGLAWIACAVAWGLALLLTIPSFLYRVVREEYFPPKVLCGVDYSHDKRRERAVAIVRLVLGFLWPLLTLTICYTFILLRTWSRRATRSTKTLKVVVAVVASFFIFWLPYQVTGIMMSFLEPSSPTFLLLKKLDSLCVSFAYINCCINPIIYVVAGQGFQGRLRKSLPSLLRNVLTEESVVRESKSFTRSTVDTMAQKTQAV
The assay can be described thus: cell-based or functional assay.
In turn, “Ac-Phe-Orn-Pro-cha-Bta-Pcf-NH2 (peptide)” returned an IC50 activity group, enzyme release assay of under 50 nM.

In the case of “Ac-Phe-OrA-Pro-cha-Bta-Phe-NH2 (peptide)”, the IC50 activity group, enzyme release assay is under 200 nM.

Consider H-Phe-[Orn-Pro-cha-Pff-Nle] (peptide), for which the IC50 activity group, enzyme release assay is under 200 nM.

Consider Ac-Phe-[Orn-Hyp-cha-Trp-Nle] (peptide), for which the IC50 activity group, enzyme release assay was under 20 nM.

Regarding “Ac-Phe-Orn-Pro-hle-Mff-Phe-NH2 (peptide)”, the IC50 activity group, enzyme release assay is under 200 nM.

Take “Ac-Phe-Orn-Pro-cha-Bta-Eaa-NH2 (peptide)”: the IC50 activity group, enzyme release assay was under 200 nM.

For “Ac-Phe-Orn-Aze-cha-Trp-Phe-NH2 (peptide)”, the EC50, agonistic activity, enzyme release assay is over 100000 nM and the IC50 activity group, enzyme release assay was under 50 nM.

“Ac-Phe-Orn-Aze-cha-Mcf-Phe-NH2 (peptide)”: the IC50 activity group, enzyme release assay is under 200 nM.

“tBu-CO-Phe-Orn-Pro-cha-Bta-Phe-NH2 (peptide)” showed an IC50 activity group, enzyme release assay of under 200 nM.

The substance H-Phe-[Orn-Hyp-cha-Trp-Nle] (peptide) showed an IC50 activity group, enzyme release assay of under 50 nM.

“Ac-Phe-Dab-Pro-cha-Bta-Phe-NH2 (peptide)” displayed an IC50 activity group, enzyme release assay of under 20 nM.

As to “Ac-Orn-Phe-Orn-Aze-cha-Bta-Phe-NH2 (peptide)”, the IC50 activity group, enzyme release assay was under 200 nM.

“Ac-Phe-Orn-Aze-hle-Bta-Phe-NH2 (peptide)” returned an IC50 activity group, enzyme release assay of under 50 nM.

With “Ac-Phe-Dab-Aze-cha-Bta-Phe-NH2 (peptide)”, the IC50 activity group, enzyme release assay was under 50 nM.

“CH3CH2CO-Phe-Orn-Pro-cha-Bta-Phe-NH2 (peptide)” showed an IC50 activity group, enzyme release assay of under 50 nM.

As for “Ac-Phe-Bta-Aze-cha-Bta-Phe-NH2 (peptide)”, the IC50 activity group, enzyme release assay was under 50 nM.

Substance “Ac-Phe-Orn-Pip-cha-Trp-Phe-NH2 (peptide)” registered an EC50, agonistic activity, enzyme release assay of over 100000 nM and an IC50 activity group, enzyme release assay of under 50 nM.

Ac-Phe-Orn-Pip-cha-Trp-Phe-OH (peptide) showed an IC50 activity group, enzyme release assay of under 2000 nM.

Substance “Ac-Mmy-Orn-Pro-hle-Pff-Phe-NH2 (peptide)” yielded an IC50 activity group, enzyme release assay of under 200 nM.

As to Ac-Phe-[Orn-Asn-cha-Trp-Nle] (peptide), the IC50 activity group, enzyme release assay was under 200 nM.

The substance “Ac-Phe-Orn-Pro-hle-Ocf-Phe-NH2 (peptide)” displayed an IC50 activity group, enzyme release assay of under 200 nM.

For “Ac-Phe-Orn-Pro-omf-Bta-Phe-NH2 (peptide)”, the IC50 activity group, enzyme release assay was under 200 nM.

As to “Ac-Phe-Cit-Ser-hle-Bta-Phe-NH2 (peptide)”, the IC50 activity group, enzyme release assay is under 200 nM.

Regarding “Ac-Phe-Orn-Pro-cha-Bta-Thi-NH2 (peptide)”, the IC50 activity group, enzyme release assay was under 20 nM.

As to “Ac-Phe-Har-Pro-cha-Bta-Phe-NH2 (peptide)”, the IC50 activity group, enzyme release assay is under 50 nM.

The substance “Ac-Phe-Orn-Pro-hle-Egy-Phe-NH2 (peptide)” returned an IC50 activity group, enzyme release assay of under 200 nM.

Ac-Phe-[Orn-Chy-cha-Trp-Nle] (peptide) had an IC50 activity group, enzyme release assay of under 200 nM.

For “Ac-Phe-Orn(Ac)-Aze-cha-Bta-Phe-NH2 (peptide)”, the IC50 activity group, enzyme release assay is under 50 nM.

On to H-Phe-[Orn-Hyp-hle-Trp-Phe] (peptide), for which the IC50 activity group, enzyme release assay is under 50 nM.

In the case of Ac-Phe-[Orn-Pip-hle-Bta-Phe] (peptide), the IC50 activity group, enzyme release assay is under 200 nM.

For the substance Ac-Phe-[Orn-Hyp-hle-Bta-Phe] (peptide), the IC50 activity group, enzyme release assay was under 200 nM.

For H-Phe-[Orn-Pro-cha-Pff-Phe] (peptide), the IC50 activity group, enzyme release assay was under 200 nM.

Substance “Ac-Phe-Orn-Aze-cha-Bta-Phe-NH2 (peptide)” displayed an IC50 activity group, enzyme release assay of under 20 nM.

The substance “Ac-Phe-Orn-Pro-hle-Mmy-Phe-NH2 (peptide)” gave an IC50 activity group, enzyme release assay of under 200 nM.

As to “Ac-Gly-Phe-Orn-Aze-hch-Bta-Phe-NH2 (peptide)”, the IC50 activity group, enzyme release assay was under 200 nM.

Regarding “Ac-Thi-Orn-Aze-cha-Bta-Phe-NH2 (peptide)”, the IC50 activity group, enzyme release assay is under 20 nM.

“Ac-Phe-Eep-Pro-cha-Bta-Phe-NH2 (peptide)” yielded an IC50 activity group, enzyme release assay of under 200 nM.

Consider “Ac-Phe-Orn-Pro-cha-Bta-NH-CH(CH2OH)-CH2-Ph (peptide)”, for which the IC50 activity group, enzyme release assay is under 200 nM.

Take “Ac-Phe-Fcn-Aze-cha-Bta-Phe-NH2 (peptide)”: the IC50 activity group, enzyme release assay is under 20 nM.

In turn, “Ac-Phe-Fco-Pro-cha-Bta-Phe-NH2 (peptide)” came in with an IC50 activity group, enzyme release assay of under 50 nM.

For “hrC5a (from UniProt P01031 678-751) (ligand)”, the EC50, agonistic activity, enzyme release assay was 2.4 nM.

The substance H-Phe-[Orn-Ser-hle-Ocf-Nle] (peptide) returned an IC50 activity group, enzyme release assay of under 200 nM.

In the case of “Ac-Gly-Thi-Orn-Aze-cha-Bta-Phe-NH2 (peptide)”, the IC50 activity group, enzyme release assay is under 50 nM.

Ac-Phe-[Orn-Pro-hle-Pff-Phe] (peptide): the IC50 activity group, enzyme release assay is under 200 nM.

As to “Ac-Thi-Orn-Pro-cha-Trp-Phe-NH2 (peptide)”, the IC50 activity group, enzyme release assay is under 200 nM.

In turn, “Ac-Phe-Orn-Pro-hle-Bta-Egy-NH2 (peptide)” registered an IC50 activity group, enzyme release assay of under 200 nM.

For “Ac-Phe-Orn-Pro-hle-Bta-2Ni-NH2 (peptide)”, the IC50 activity group, enzyme release assay was under 200 nM.

Turning to 3PP-Orn-Aze-cha-Bta-Phe-NH2 (peptide), the IC50 activity group, enzyme release assay was under 200 nM.

“Me-O-CO-Phe-Orn-Pro-cha-Bta-Phe-NH2 (peptide)” showed an IC50 activity group, enzyme release assay of under 200 nM.

“Ac-Phe-Orn-Pro-Cha-Bta-NH-NBn-CO-NH2 (peptide)”: the IC50 activity group, enzyme release assay was under 200 nM.

Take Ac-Phe-[Orn-Ser-cha-Trp-Nle] (peptide): the IC50 activity group, enzyme release assay is under 200 nM.

For the substance H-Phe-[Orn-Hyp-cha-Trp-Phe] (peptide), the IC50 activity group, enzyme release assay is under 50 nM.

Substance H-Phe-[Orn-Pro-hle-Pff-Nle] (peptide) yielded an IC50 activity group, enzyme release assay of under 200 nM.

The substance “Ac-Guf-Phe-Orn-Aze-cha-Bta-Phe-NH2 (peptide)” had an IC50 activity group, enzyme release assay of under 200 nM.

In turn, “Ac-Phe-Orn-Pro-hle-Mcf-Pff-NH2 (peptide)” gave an IC50 activity group, enzyme release assay of under 200 nM.

For “Ac-Phe-Orn-Pro-hle-Bta-Eaa-NH2 (peptide)”, the IC50 activity group, enzyme release assay is under 200 nM.

Regarding “H-Bal-Phe-[Orn-Hyp-hle-Trp-Nle] (peptide)”, the IC50 activity group, enzyme release assay is under 200 nM.

For “Ac-Phe-Orn-Pro-cha-Bta-Dff-NH2 (peptide)”, the IC50 activity group, enzyme release assay is under 50 nM.

For “CH3-SO2-Phe-Orn-Aze-cha-Bta-Phe-NH2 (peptide)”, the IC50 activity group, enzyme release assay was under 50 nM.

The substance “Ac-Phe-Orn-Pro-cha-1Ni-Phe-NH2 (peptide)” gave an IC50 activity group, enzyme release assay of under 200 nM.

As for “Ac-Phe-Orn-Pro-cha-Bta-Bhf-NH2 (peptide)”, the IC50 activity group, enzyme release assay was under 50 nM.

Substance Ac-Phe-[Orn-Hyp-Mmf-Trp-Nle] (peptide) gave an IC50 activity group, enzyme release assay of under 200 nM.

In turn, H-Phe-[Orn-Ser-hle-Mcf-Leu] (peptide) returned an IC50 activity group, enzyme release assay of under 200 nM.

With “Ac-Phe-OrE-Pro-cha-Bta-Phe-NH2 (peptide)”, the IC50 activity group, enzyme release assay was under 200 nM.

“Ac-Phe-Orn-Hyp-hle-Pff-Phe-NH2 (peptide)” gave an IC50 activity group, enzyme release assay of under 200 nM.

Substance “Ac-Phe-Orn-Pro-cha-Bta-Phe-NH2 (peptide)” displayed an EC50, agonistic activity, enzyme release assay of over 100000 nM and an IC50 activity group, enzyme release assay of under 50 nM.

As to “Ac-Phe-Cit-Hyp-hle-Bta-Phe-NH2 (peptide)”, the IC50 activity group, enzyme release assay was under 200 nM.

For “Ac-Phe-Orn-NMS-cha-Bta-Phe-NH2 (peptide)”, the IC50 activity group, enzyme release assay is under 200 nM.

H-Phe-Cit-Pro-hle-Bta-Phe-NH2 (peptide): the IC50 activity group, enzyme release assay is under 200 nM.

In turn, Ac-Phe-Orn-Pro-hle-Bta-phe-OH (peptide) displayed an IC50 activity group, enzyme release assay of under 200 nM.

With “Ac-Phe-Orn-Pro-hle-Bta-Aic-NH2 (peptide)”, the IC50 activity group, enzyme release assay is under 200 nM.

Consider “Ac-Phe-Orn-Pro-hle-Bta-Phe-NH2 (peptide)”, for which the IC50 activity group, enzyme release assay was under 20 nM.

Substance “(-CO-CH2-CH2-CO-)-Phe-Orn-Pro-cha-Bta-Phe-NH2 (peptide)” came in with an IC50 activity group, enzyme release assay of under 2000 nM.

As to “Ac-Phe-Eec-Pro-cha-Bta-Phe-NH2 (peptide)”, the IC50 activity group, enzyme release assay is under 200 nM.

The substance “Ac-Phe-Paf-Pro-cha-Bta-Phe-NH2 (peptide)” showed an IC50 activity group, enzyme release assay of under 2000 nM.

In turn, “Ac-Thi-Orn-Pro-cha-Bta-Thi-NH2 (peptide)” displayed an IC50 activity group, enzyme release assay of under 50 nM.

H-Phe-[Orn-Pro-hle-Ocf-Phe] (peptide) yielded an IC50 activity group, enzyme release assay of under 200 nM.

With Ac-Phe-[Orn-Hyp-hle-Pff-Nle] (peptide), the IC50 activity group, enzyme release assay is under 200 nM.

“Ac-Phe-Orn-Pro-hle-Bta-Chg-NH2 (peptide)” returned an IC50 activity group, enzyme release assay of under 200 nM.

For the substance Ac-Phe-[Orn-HyA-cha-Trp-Phe] (peptide), the IC50 activity group, enzyme release assay was under 200 nM.

The substance “Ac-Arg-Phe-Orn-Aze-cha-Bta-Phe-NH2 (peptide)” registered an IC50 activity group, enzyme release assay of under 50 nM.

“Ac-Phe-Orn-Pro-cha-Bta-Opa-NH2 (peptide)” had an IC50 activity group, enzyme release assay of under 200 nM.

Consider 3PP-[Orn-Hyp-cha-Trp-Nle] (peptide), for which the IC50 activity group, enzyme release assay is under 50 nM.

Ac-Phe-[Orn-NMD-cha-Trp-Nle] (peptide) registered an IC50 activity group, enzyme release assay of under 200 nM.
